Measured values taken from patent publication WO2016171242A1 (dated 2016).

Experiments:
Assay in all cases: flow cytometry on transfected 293F cells
[1] = target: T1, human PTPRS isoform 2 without signal sequence, FLAG-tagged, expressed from pFLAG-PTPRS-2 (human, UniProt Q13332 30-1948)
T1 construct: not shown: FLAG tag supplied by the vector pFLAG-GW

[2] = target: T2, human EPHA3 without signal sequence, FLAG-tagged, expressed from pFLAG-EPHA3 (human, UniProt P29320 21-983)
T2 construct: not shown: FLAG tag supplied by the vector pFLAG-GW
T2 sequence: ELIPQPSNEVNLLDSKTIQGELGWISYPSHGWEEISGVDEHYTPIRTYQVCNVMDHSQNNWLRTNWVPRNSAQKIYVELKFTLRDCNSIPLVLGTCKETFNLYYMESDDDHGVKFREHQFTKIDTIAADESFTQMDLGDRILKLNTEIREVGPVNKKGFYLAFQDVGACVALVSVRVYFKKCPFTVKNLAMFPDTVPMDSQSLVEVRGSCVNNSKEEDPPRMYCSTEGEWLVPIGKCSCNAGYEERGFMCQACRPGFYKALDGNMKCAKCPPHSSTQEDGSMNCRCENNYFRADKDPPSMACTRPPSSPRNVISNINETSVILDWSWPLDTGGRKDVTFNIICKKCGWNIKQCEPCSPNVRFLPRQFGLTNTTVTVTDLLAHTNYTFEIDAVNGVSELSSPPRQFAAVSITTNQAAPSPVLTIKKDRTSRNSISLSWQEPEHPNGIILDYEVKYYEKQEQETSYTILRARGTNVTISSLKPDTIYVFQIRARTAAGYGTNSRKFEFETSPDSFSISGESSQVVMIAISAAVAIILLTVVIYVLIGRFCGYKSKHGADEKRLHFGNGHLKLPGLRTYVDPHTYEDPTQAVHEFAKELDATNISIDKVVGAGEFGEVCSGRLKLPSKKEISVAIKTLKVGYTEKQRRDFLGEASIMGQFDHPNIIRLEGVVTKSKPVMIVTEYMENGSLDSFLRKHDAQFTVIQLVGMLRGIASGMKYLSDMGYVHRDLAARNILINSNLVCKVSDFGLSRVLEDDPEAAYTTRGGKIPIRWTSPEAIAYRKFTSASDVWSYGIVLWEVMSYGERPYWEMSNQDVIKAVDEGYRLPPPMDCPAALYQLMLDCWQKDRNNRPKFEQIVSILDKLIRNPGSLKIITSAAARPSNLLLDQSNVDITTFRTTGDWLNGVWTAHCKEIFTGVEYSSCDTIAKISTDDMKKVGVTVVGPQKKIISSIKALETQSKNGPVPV

[3] = target: T3, human EPHB3 without signal sequence, FLAG-tagged, expressed from pFLAG-EPHB3 (human, UniProt P54753 38-998)
T3 construct: not shown: FLAG tag supplied by the vector pFLAG-GW
T3 sequence: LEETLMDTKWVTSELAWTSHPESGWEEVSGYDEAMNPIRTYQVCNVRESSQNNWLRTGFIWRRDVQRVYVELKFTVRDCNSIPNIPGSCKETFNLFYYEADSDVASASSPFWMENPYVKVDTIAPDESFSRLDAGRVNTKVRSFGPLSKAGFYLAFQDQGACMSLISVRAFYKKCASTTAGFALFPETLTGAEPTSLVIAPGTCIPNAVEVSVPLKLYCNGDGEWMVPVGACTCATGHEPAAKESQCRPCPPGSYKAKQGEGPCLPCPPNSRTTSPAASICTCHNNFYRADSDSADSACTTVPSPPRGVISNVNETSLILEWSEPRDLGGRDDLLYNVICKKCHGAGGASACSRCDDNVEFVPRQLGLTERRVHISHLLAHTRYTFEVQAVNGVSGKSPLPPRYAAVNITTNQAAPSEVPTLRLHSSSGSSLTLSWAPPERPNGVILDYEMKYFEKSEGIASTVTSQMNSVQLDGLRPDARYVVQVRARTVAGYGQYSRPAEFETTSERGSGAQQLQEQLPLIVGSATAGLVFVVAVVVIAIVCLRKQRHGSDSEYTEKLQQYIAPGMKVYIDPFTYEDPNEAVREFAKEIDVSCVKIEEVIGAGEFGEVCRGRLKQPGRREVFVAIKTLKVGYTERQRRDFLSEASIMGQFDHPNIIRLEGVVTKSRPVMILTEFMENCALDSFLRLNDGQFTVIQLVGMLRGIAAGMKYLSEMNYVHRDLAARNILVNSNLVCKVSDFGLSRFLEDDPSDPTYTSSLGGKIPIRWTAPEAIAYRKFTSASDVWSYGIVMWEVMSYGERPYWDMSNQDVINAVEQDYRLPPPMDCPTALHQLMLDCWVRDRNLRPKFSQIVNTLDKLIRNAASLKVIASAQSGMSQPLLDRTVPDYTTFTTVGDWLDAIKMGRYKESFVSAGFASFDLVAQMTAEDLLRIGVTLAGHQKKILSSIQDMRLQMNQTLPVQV

[4] = target: T4, human EPHA7 without signal sequence, FLAG-tagged, expressed from pFLAG-EPHA7 (human, UniProt Q15375 28-998)
T4 construct: not shown: FLAG tag supplied by the vector pFLAG-GW

[5] = target: T5, human EPHA5 without signal sequence, FLAG-tagged, expressed from pFLAG-EPHA5 (human, UniProt P54756 56-1037)
T5 construct: not shown: FLAG tag supplied by the vector pFLAG-GW

Measured: binding result

T4 sequence (Q15375 28-998): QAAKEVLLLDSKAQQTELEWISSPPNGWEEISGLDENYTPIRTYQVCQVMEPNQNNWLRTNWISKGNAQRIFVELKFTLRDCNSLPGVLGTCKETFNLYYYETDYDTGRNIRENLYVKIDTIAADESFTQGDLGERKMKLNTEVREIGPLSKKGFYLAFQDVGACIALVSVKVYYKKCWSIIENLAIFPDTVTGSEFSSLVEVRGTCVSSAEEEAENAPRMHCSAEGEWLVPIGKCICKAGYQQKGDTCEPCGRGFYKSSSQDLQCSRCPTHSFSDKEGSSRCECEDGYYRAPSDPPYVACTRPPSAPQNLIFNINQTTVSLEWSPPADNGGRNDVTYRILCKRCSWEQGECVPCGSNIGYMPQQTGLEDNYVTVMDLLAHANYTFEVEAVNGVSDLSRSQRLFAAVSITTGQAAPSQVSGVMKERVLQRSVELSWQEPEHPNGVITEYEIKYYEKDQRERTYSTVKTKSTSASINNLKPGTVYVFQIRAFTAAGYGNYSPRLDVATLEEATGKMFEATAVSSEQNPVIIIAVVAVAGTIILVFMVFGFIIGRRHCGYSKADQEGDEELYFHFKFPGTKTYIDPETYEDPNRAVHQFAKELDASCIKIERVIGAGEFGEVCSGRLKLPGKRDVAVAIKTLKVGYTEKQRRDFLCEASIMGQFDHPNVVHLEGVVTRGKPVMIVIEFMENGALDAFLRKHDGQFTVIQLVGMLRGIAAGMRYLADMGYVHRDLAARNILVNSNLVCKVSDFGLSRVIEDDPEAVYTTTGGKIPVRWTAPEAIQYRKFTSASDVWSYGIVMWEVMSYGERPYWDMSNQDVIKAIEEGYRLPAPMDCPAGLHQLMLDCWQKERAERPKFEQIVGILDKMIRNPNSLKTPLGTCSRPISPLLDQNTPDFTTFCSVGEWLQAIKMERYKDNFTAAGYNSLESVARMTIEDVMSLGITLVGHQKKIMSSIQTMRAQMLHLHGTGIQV
T5 sequence (P54756 56-1037): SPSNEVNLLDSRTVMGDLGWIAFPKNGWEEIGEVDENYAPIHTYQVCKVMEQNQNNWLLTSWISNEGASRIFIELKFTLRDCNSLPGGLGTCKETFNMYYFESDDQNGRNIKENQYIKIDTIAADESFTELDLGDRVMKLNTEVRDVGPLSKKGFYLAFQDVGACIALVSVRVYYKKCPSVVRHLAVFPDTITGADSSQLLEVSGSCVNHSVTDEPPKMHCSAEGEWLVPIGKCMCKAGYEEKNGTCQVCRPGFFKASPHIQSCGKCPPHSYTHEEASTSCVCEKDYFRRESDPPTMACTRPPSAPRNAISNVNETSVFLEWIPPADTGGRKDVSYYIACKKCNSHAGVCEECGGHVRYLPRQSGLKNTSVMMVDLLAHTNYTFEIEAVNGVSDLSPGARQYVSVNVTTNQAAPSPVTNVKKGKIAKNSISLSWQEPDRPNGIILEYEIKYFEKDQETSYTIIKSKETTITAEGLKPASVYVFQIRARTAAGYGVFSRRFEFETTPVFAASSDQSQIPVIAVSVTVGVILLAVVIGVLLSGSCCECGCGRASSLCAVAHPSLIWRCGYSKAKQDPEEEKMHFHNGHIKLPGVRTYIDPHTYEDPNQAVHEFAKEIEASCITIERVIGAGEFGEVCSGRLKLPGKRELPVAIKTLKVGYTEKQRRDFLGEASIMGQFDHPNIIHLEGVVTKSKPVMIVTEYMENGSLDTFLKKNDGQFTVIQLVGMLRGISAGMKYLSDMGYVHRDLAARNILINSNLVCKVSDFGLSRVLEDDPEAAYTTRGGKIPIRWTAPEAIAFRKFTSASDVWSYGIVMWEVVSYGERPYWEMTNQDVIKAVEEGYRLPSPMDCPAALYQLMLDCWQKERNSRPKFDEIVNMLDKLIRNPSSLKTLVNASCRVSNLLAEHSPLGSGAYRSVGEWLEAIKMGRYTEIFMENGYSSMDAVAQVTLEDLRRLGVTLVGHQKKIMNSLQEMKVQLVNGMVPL

B1: mouse anti-human EPHA2 antibody A201 (antibody, V domains shown)
VH: EVQLQQSGAELVKPGASVKLSCTVSGFTFKDTYVHWVKQRPEQGLEWIGRIDPANANTKYDPKFQGKASITADTSSNTAYLQLSSLPSEDTAVYYCAAYGKSAWFAYWGQGTLVTVSA
VL: DIQMTQTTSSLSASLGDRVTISCRASQDIGNYLNWYQQKPDGTVKVLIYYTSRLHSGVPSRFSGSGSGTDYSLTISNLEQEDIATYFCQQGHSLPPTFGGGTKLEIKR
notes: Mouse monoclonal antibody purified from hybridoma supernatant, isotype IgG1; also called A201 antibody
no binding: all assays above

B2: mouse anti-human EPHA2 antibody A205 (antibody, V domains shown)
VH: QIQLVQSGPELKKPGETVKISCKASGYTFTDYSMNWVKQAPGKGLKWMGWINTYTGEPTYADDFKGRFAFSLETSASTAYLQINNLKNEDTATYFCASPISLLRLLDYWGQGTTLTVSS
VL: DVVMTQTPLSLPVSLGDQASIPCRSSQSLVHSNGNTYLHWYLQKPGQSPKLLIYKVSNRFSGVPDRFSGSGSGTDFTLKISRVEAEDLGVYFCSQSTHVPWTFGGGTKLEIKR
notes: Mouse monoclonal antibody purified from hybridoma supernatant, isotype IgG2b; also called A205 antibody
no binding: all assays above
